Laboratory results published in patent US20240018502A1.

What was measured:
[1] = molecular target: human complement protein C3 (human) (UniProt P01024); assay: cell-based or functional assay
[2] = molecular target: plasma purified human complement protein C3 (human) (UniProt P01024); assay: cell-based or functional assay
plasma purified human complement protein C3 (human), sequence (P01024 23-667, chain 1 of 2): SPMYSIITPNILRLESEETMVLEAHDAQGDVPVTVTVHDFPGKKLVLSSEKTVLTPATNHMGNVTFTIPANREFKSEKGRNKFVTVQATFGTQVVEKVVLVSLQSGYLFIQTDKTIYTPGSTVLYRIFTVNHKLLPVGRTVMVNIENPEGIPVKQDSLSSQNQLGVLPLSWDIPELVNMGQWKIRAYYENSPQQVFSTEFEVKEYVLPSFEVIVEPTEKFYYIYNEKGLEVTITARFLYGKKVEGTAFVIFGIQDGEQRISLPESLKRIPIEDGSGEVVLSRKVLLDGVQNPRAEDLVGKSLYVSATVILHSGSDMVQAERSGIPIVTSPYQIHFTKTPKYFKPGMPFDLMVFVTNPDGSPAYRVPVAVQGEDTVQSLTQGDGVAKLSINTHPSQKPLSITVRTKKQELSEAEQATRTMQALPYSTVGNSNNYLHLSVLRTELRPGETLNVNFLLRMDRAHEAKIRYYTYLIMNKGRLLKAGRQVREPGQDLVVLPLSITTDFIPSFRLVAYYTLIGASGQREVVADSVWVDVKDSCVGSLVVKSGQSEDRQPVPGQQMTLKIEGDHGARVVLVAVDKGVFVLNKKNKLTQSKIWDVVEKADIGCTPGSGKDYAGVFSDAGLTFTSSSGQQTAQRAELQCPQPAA
plasma purified human complement protein C3 (human), sequence (P01024 672-1663, chain 2 of 2): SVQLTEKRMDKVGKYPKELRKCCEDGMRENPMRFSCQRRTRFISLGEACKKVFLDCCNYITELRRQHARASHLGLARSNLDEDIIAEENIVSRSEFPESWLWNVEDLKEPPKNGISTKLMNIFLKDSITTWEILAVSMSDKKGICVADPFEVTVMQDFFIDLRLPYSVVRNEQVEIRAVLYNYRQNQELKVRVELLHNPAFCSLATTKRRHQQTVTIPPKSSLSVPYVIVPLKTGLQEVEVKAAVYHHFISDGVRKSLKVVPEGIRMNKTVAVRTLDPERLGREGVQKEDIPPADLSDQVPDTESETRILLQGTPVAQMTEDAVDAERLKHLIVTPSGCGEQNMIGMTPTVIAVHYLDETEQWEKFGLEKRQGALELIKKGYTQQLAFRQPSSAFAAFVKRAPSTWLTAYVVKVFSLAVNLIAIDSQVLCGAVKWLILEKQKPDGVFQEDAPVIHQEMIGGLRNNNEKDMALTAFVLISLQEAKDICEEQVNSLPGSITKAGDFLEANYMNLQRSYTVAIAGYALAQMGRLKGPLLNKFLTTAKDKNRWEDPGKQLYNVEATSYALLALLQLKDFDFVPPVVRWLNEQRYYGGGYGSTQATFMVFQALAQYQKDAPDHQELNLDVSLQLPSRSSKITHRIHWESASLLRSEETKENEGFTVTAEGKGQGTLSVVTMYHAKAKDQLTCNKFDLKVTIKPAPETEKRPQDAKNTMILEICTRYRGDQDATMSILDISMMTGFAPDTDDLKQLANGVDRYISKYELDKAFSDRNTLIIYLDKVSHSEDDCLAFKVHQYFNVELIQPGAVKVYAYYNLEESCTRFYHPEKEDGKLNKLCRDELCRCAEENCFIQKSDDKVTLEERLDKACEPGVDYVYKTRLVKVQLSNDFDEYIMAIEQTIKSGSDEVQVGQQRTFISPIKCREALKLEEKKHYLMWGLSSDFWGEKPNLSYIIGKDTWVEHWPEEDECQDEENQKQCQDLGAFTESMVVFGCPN

human complement protein C3 (human), sequence (P01024 23-667, chain 1 of 2): as the sequence (P01024 23-667, chain 1 of 2) above
human complement protein C3 (human), sequence (P01024 672-1663, chain 2 of 2): as the sequence (P01024 672-1663, chain 2 of 2) above

Binder | EC50 (nM), cleavage of purified hC3 in vitro [1] [nM] | EC50 of hC3 cleavage [2] [nM]
Q38Y/I41S/D60bT/F60eR/Y60gW/D96M/F97N/T98G/F99L/C122S/G151N/Q175L (enzyme) VVGGTDADEGEWPWQVSLHALGYGHSCGASLISPNWLVSAAHCYIDTRGRRWSDPTQWTAFLGLHDQSQRSAPGVQERRLKRIISHPFFNMNGLDYDIALLELEKPAEYSSMVRPISLPDASHVFPAGKAIWVTGWGHTQYGGTNALILQKGEIRVINQTTCENLLPQLITPRMMCVGFLSGGVDSCQGDSGGPLSSVEADGRIFQAGVVSWGDGCAQRNKPGVYTRLPLFRDWIKENTGV | 1.08 | –
Q38G/H40R/I41H/D60bN/F97D/F99L/C122S/Q175L/Q192G (enzyme) VVGGTDADEGEWPWQVSLHALGGGRHCGASLISPNWLVSAAHCYIDNRGFRYSDPTQWTAFLGLHDQSQRSAPGVQERRLKRIISHPFFNDDTLDYDIALLELEKPAEYSSMVRPISLPDASHVFPAGKAIWVTGWGHTQYGGTGALILQKGEIRVINQTTCENLLPQLITPRMMCVGFLSGGVDSCGGDSGGPLSSVEADGRIFQAGVVSWGDGCAQRNKPGVYTRLPLFRDWIKENTGV | 0.867 | –
MTSP-1 H40R/I41H/Y60gH/F97D/F99L/C122S/Q175M/Q192G/D217I/K224R (enzyme) VVGGTDADEGEWPWQVSLHALGQGRHCGASLISPNWLVSAAHCYIDDRGFRHSDPTQWTAFLGLHDQSQRSAPGVQERRLKRIISHPFFNDDTLDYDIALLELEKPAEYSSMVRPISLPDASHVFPAGKAIWVTGWGHTQYGGTGALILQKGEIRVINQTTCENLLPQMITPRMMCVGFLSGGVDSCGGDSGGPLSSVEADGRIFQAGVVSWGIGCAQRNRPGVYTRLPLFRDWIKENTGV | – | 7.94
MTSP-1 H40R/I41H/Y60gN/F97D/F99L/C122S/G151N/Q175K/Q192S/D217S/K224L (enzyme) VVGGTDADEGEWPWQVSLHALGQGRHCGASLISPNWLVSAAHCYIDDRGFRNSDPTQWTAFLGLHDQSQRSAPGVQERRLKRIISHPFFNDDTLDYDIALLELEKPAEYSSMVRPISLPDASHVFPAGKAIWVTGWGHTQYGGTNALILQKGEIRVINQTTCENLLPQKITPRMMCVGFLSGGVDSCSGDSGGPLSSVEADGRIFQAGVVSWGSGCAQRNLPGVYTRLPLFRDWIKENTGV | – | 187
MTSP-1 H40R/I41H/Y60gL/F97D/F99L/C122S/G151N (enzyme) VVGGTDADEGEWPWQVSLHALGQGRHCGASLISPNWLVSAAHCYIDDRGFRLSDPTQWTAFLGLHDQSQRSAPGVQERRLKRIISHPFFNDDTLDYDIALLELEKPAEYSSMVRPISLPDASHVFPAGKAIWVTGWGHTQYGGTNALILQKGEIRVINQTTCENLLPQQITPRMMCVGFLSGGVDSCQGDSGGPLSSVEADGRIFQAGVVSWGDGCAQRNKPGVYTRLPLFRDWIKENTGV | – | 54.9
MTSP-1 H40K/I41M/Y60gF/F97D/F99L/C122S/G151N/Q175L/Q192D (enzyme) VVGGTDADEGEWPWQVSLHALGQGKMCGASLISPNWLVSAAHCYIDDRGFRFSDPTQWTAFLGLHDQSQRSAPGVQERRLKRIISHPFFNDDTLDYDIALLELEKPAEYSSMVRPISLPDASHVFPAGKAIWVTGWGHTQYGGTNALILQKGEIRVINQTTCENLLPQLITPRMMCVGFLSGGVDSCDGDSGGPLSSVEADGRIFQAGVVSWGDGCAQRNKPGVYTRLPLFRDWIKENTGV | – | 589
MTSP-1 H40R/I41H/F97D/C122S/G151N/Q175M/Q192A/D217S/K224R (enzyme) VVGGTDADEGEWPWQVSLHALGQGRHCGASLISPNWLVSAAHCYIDDRGFRYSDPTQWTAFLGLHDQSQRSAPGVQERRLKRIISHPFFNDDTFDYDIALLELEKPAEYSSMVRPISLPDASHVFPAGKAIWVTGWGHTQYGGTNALILQKGEIRVINQTTCENLLPQMITPRMMCVGFLSGGVDSCAGDSGGPLSSVEADGRIFQAGVVSWGSGCAQRNRPGVYTRLPLFRDWIKENTGV | – | 470
MTSP-1 H40R/I41H/F97D/F99L/C122S/G151D/Q175M/Q192G/D217V (enzyme) VVGGTDADEGEWPWQVSLHALGQGRHCGASLISPNWLVSAAHCYIDDRGFRYSDPTQWTAFLGLHDQSQRSAPGVQERRLKRIISHPFFNDDTLDYDIALLELEKPAEYSSMVRPISLPDASHVFPAGKAIWVTGWGHTQYGGTDALILQKGEIRVINQTTCENLLPQMITPRMMCVGFLSGGVDSCGGDSGGPLSSVEADGRIFQAGVVSWGVGCAQRNKPGVYTRLPLFRDWIKENTGV | – | 70.8
MTSP-1 H40R/I41H/Y60gH/F97D/F99L/C122S/Q175M/Q192G/D217I/K224L (enzyme) VVGGTDADEGEWPWQVSLHALGQGRHCGASLISPNWLVSAAHCYIDDRGFRHSDPTQWTAFLGLHDQSQRSAPGVQERRLKRIISHPFFNDDTLDYDIALLELEKPAEYSSMVRPISLPDASHVFPAGKAIWVTGWGHTQYGGTGALILQKGEIRVINQTTCENLLPQMITPRMMCVGFLSGGVDSCGGDSGGPLSSVEADGRIFQAGVVSWGIGCAQRNLPGVYTRLPLFRDWIKENTGV | – | 3.72
MTSP-1 H40K/I41M/Y60gG/F97D/F99L/C122S/G151N/Q175R/Q192R/D217V/K224S (enzyme) VVGGTDADEGEWPWQVSLHALGQGKMCGASLISPNWLVSAAHCYIDDRGFRGSDPTQWTAFLGLHDQSQRSAPGVQERRLKRIISHPFFNDDTLDYDIALLELEKPAEYSSMVRPISLPDASHVFPAGKAIWVTGWGHTQYGGTNALILQKGEIRVINQTTCENLLPQRITPRMMCVGFLSGGVDSCRGDSGGPLSSVEADGRIFQAGVVSWGVGCAQRNSPGVYTRLPLFRDWIKENTGV | – | 509
MTSP-1 H40K/I41L/Y60gF/F97D/F99L/C122S/G151N/Q175R (enzyme) VVGGTDADEGEWPWQVSLHALGQGKLCGASLISPNWLVSAAHCYIDDRGFRFSDPTQWTAFLGLHDQSQRSAPGVQERRLKRIISHPFFNDDTLDYDIALLELEKPAEYSSMVRPISLPDASHVFPAGKAIWVTGWGHTQYGGTNALILQKGEIRVINQTTCENLLPQRITPRMMCVGFLSGGVDSCQGDSGGPLSSVEADGRIFQAGVVSWGDGCAQRNKPGVYTRLPLFRDWIKENTGV | – | 237
Q38H/I41A/D60bV/F60eR/Y60gW/D96P/ins97aN/F97W/T98G/F99L/C122S/G151H/Q175L/Q192E (enzyme) VVGGTDADEGEWPWQVSLHALGHGHACGASLISPNWLVSAAHCYIDVRGRRWSDPTQWTAFLGLHDQSQRSAPGVQERRLKRIISHPFFNPWNGLDYDIALLELEKPAEYSSMVRPISLPDASHVFPAGKAIWVTGWGHTQYGGTHALILQKGEIRVINQTTCENLLPQLITPRMMCVGFLSGGVDSCEGDSGGPLSSVEADGRIFQAGVVSWGDGCAQRNKPGVYTRLPLFRDWIKENTGV | 1.11 | –
Q38H/I41S/D60bT/F60eS/Y60gW/D96F/F97D/ins97aE/T98S/F99L/C122S/G151H/Q175L/Q192A (enzyme) VVGGTDADEGEWPWQVSLHALGHGHSCGASLISPNWLVSAAHCYIDTRGSRWSDPTQWTAFLGLHDQSQRSAPGVQERRLKRIISHPFFNFDESLDYDIALLELEKPAEYSSMVRPISLPDASHVFPAGKAIWVTGWGHTQYGGTHALILQKGEIRVINQTTCENLLPQLITPRMMCVGFLSGGVDSCAGDSGGPLSSVEADGRIFQAGVVSWGDGCAQRNKPGVYTRLPLFRDWIKENTGV | 1.17 | –
Q38F/I41A/D60bT/F60eG/Y60gW/ins97aE/F97T/T98G/F99L/C122S/Q175L/Q192E (enzyme) VVGGTDADEGEWPWQVSLHALGFGHACGASLISPNWLVSAAHCYIDTRGGRWSDPTQWTAFLGLHDQSQRSAPGVQERRLKRIISHPFFNDTEGLDYDIALLELEKPAEYSSMVRPISLPDASHVFPAGKAIWVTGWGHTQYGGTGALILQKGEIRVINQTTCENLLPQLITPRMMCVGFLSGGVDSCEGDSGGPLSSVEADGRIFQAGVVSWGDGCAQRNKPGVYTRLPLFRDWIKENTGV | 1.25 | –
ins97aA/F97G/T98L/C122S/Q175M/Q192A/D217I/K224R (enzyme) VVGGTDADEGEWPWQVSLHALGQGHICGASLISPNWLVSAAHCYIDDRGFRYSDPTQWTAFLGLHDQSQRSAPGVQERRLKRIISHPFFNDGALFDYDIALLELEKPAEYSSMVRPISLPDASHVFPAGKAIWVTGWGHTQYGGTGALILQKGEIRVINQTTCENLLPQMITPRMMCVGFLSGGVDSCAGDSGGPLSSVEADGRIFQAGVVSWGIGCAQRNRPGVYTRLPLFRDWIKENTGV | 0.866 | –
